Test results: PMC6160157

Key:
[1] = target: HA tri-stalk protein (HA amino acids 403-474 of the pandemic strain A/Luxembourg/43/2009(H1N1)) (Influenza A virus A/Luxembourg/43/2009(H1N1)); assay: SEC
[2] = target: HA tri-stalk protein (HA amino acids 403-474 of the pandemic strain A/Luxembourg/43/2009(H1N1)) (Influenza A virus A/Luxembourg/43/2009(H1N1)); assay: crystal structure

Substance “HA tri-stalk protein (HA amino acids 403-474 of the pandemic strain A/Luxembourg/43/2009(H1N1)) (domain or fragment)” has a stoichiometry N [1] of 3 and a stoichiometry N [2] of 3.
